Source: the supplement of paper PMC11246515
± gives the standard deviation of the averaged measurements.

Assay: total protein half-life in vivo (active degradation + dilution); higher = more stable protein
[1] = E. coli NCM3722 delta-clpP, growth: N-lim chemostat, doubling time 6 h
[2] = E. coli NCM3722 delta-lon, growth: N-lim chemostat, doubling time 6 h
[3] = wild type E. coli NCM3722, growth: N-lim chemostat, doubling time 6 h
[4] = wild type E. coli NCM3722, growth: N-lim chemostat, doubling time 12 h
[5] = wild type E. coli NCM3722, growth: P-lim chemostat, doubling time 6 h
[6] = E. coli NCM3722 delta-clpP delta-lon delta-hslV, growth: N-lim chemostat, doubling time 6 h
[7] = E. coli NCM3722 delta-hslV, growth: N-lim chemostat, doubling time 6 h
[8] = wild type E. coli NCM3722, growth: C-lim chemostat, doubling time 12 h
[9] = wild type E. coli NCM3722, growth: P-lim chemostat, doubling time 12 h
[10] = E. coli NCM3722 delta-smpB, growth: N-lim chemostat, doubling time 6 h
[11] = wild type E. coli NCM3722, growth: C-lim chemostat, doubling time 3 h
[12] = wild type E. coli NCM3722, growth: C-lim chemostat, doubling time 6 h

Row | Sequence | total protein half-life in vivo [1] | total protein half-life in vivo [2] | total protein half-life in vivo [3] | total protein half-life in vivo [4] | total protein half-life in vivo [5] | total protein half-life in vivo [6] | total protein half-life in vivo [7] | total protein half-life in vivo [8] | total protein half-life in vivo [9] | total protein half-life in vivo [10] | total protein half-life in vivo [11] | total protein half-life in vivo [12]
1 | MLRFLNQCSQGRGAWLLMAFTALALELTALWFQHVMLLKPCVLCIYERCALFGVLGAALIGAIAPKTPLRYVAMVIWLYSAFRGVQLTYEHTMLQLYPSPFATCDFMVRFPEWLPLDKWVPQVFVASGDCAERQWDFLGLEMPQWLLGIFIAYLIVAVLVVISQPFKAKKRDLFGR [P0A6M2] | 6.09 h | > 8 h | 6.88 h | 9.57 h | 5.52 h |  |  |  |  |  |  | 
2 | MLRHNVPVRRDLDQIAADNGFDFHIIDNEIYWDESRAYRFTLRQIEEQIEKPTAELHQMCLEVVDRAVKDEEILTQLAIPPLYWDVIAESWRARDPSLYGRMDFAWCGNAPVKLLEYNADTPTSLYESAYFQWLWLEDARRSGIIPRDADQYNAIQERLISRFSELYSREPFYFCCCQDTDEDRSTVLYLQDCAQQAGQESRFIYIEDLGLGVGGVLTDLDDNVIQRAFKLYPLEWMMRDDNGPLLRKRREQWVEPLWKSILSNKGLMPLLWRFFPGHPNLLASWFDGEKPQIAAGESYVRKPIYSREGGNVTIFDGKNNVVDHADGDYADEPMIYQAFQPLPRFGDSYTLIGSWIVDDEACGMGIREDNTLITKDTSRFVPHYIAG | > 8 h | > 8 h | > 8 h | > 16 h | > 8 h | > 8 h | > 8 h | 8.91 h | > 16 h |  |  | 
3 | MLRIADKTFDSHLFTGTGKFASSQLMVEAIRASGSQLVTLAMKRVDLRQHNDAILEPLIAAGVTLLPNTSGAKTAEEAIFAAHLAREALGTNWLKLEIHPDARWLLPDPIETLKAAETLVQQGFVVLPYCGADPVLCKRLEEVGCAAVMPLGAPIGSNQGLETRAMLEIIIQQATVPVVVDAGIGVPSHAAQALEMGADAVLVNTAIAVADDPVNMAKAFRLAVEAGLLARQSGPGSRSYFAHATSPLTGFLEASA | 1.09 ± 0.22 h | 1.093 ± 0.0074 h | 0.928 ± 0.09 h | 1.067 ± 0.0049 h | 2.01 ± 0.17 h | 2.21 ± 0.21 h | 0.8075 ± 0.0064 h | 1.81 ± 0.88 h | 3.07 ± 0.59 h | 0.844 ± 0.015 h | 1.59 ± 0.079 h | 1.61 ± 0.17 h
4 | MLRLLEEKIATPLGPLWVICDEQFRLRAVEWEEYSERMVQLLDIHYRKEGYERISATNPGGLSDKLREYFAGNLSIIDTLPTATGGTPFQREVWKTLRTIPCGQVMHYGQLAEQLGRPGAARAVGAANGSNPISIVVPCHRVIGRNGTMTGYAGGVQRKEWLLRHEGYLLL [P0AFH0] | 4.8 ± 0.28 h |  | 4.55 ± 0.71 h | 7.793 ± 0.026 h | 5.07 ± 0.087 h | 5.81 ± 0.46 h | 6.05 ± 1.3 h | 10.4 ± 0.61 h | 8.9 ± 0.66 h | 3.86 ± 0.21 h | 2.61 h | 5.29 ± 0.24 h
5 | MLRMTPLASAIVALLLGIEAYAAEETFDTHFMIGGMKDQQVANIRLDDNQPLPGQYDIDIYVNKQWRGKYEIIVKDNPQETCLSREVIKRLGINSDNFASGKQCLTFEQLVQGGSYTWDIGVFRLDFSVPQAWVEELESGYVPPENWERGINAFYTSYYLSQYYSDYKASGNNKSTYVRFNSGLNLLGWQLHSDASFSKTNNNPGVWKSNTLYLERGFAQLLGTLRVGDMYTSSDIFDSVRFRGVRLFRDMQMLPNSKQNFTPRVQGIAQSNALVTIEQNGFVVYQKEVPPGPFAITDLQLAGGGADLDVSVKEADGSVTTYLVPYAAVPNMLQPGVSKYDLAAGRSHIEGASKQSDFVQAGYQYGFNNLLTLYGGSMVANNYYAFTLGAGWNTRIGAISVDATKSHSKQDNGDVFDGQSYQIAYNKFVSQTSTRFGLAAWRYSSRDYRTFNDHVWANNKDNYRRDENDVYDIADYYQNDFGRKNSFSANMSQSLPEGWGSVSLSTLWRDYWGRSGSSKDYQLSYSNNLRRISYTLAASQAYDENHHEEKRFNIFISIPFDWGDDVSTPRRQIYMSNSTTFDDQGFASNNTGLSGTVGSRDQFNYGVNLSHQHQGNETTAGANLTWNAPVATVNGSYSQSSTYRQAGASVSGGIVAWSGGVNLANRLSETFAVMNAPGIKDAYVNGQKYRTTNRNGVVIYDGMTPYRENHLMLDVSQSDSEAELRGNRKIAAPYRGAVVLVNFDTDQRKPWFIKALRADGQSLTFGYEVNDIHGHNIGVVGQGSQLFIRTNEVPPSVNVAIDKQQGLSCTITFGKEIDESRNYICQ |  |  |  |  |  |  |  |  | 9.63 h |  |  | 
6 | MLRPVETPTREIKKLDGLWAFSLDRENCGIDQRWWESALQESRAIAVPGSFNDQFADADIRNYAGNVWYQREVFIPKGWAGQRIVLRFDAVTHYGKVWVNNQEVMEHQGGYTPFEADVTPYVIAGKSVRITVCVNNELNWQTIPPGMVITDENGKKKQSYFHDFFNYAGIHRSVMLYTTPNTWVDDITVVTHVAQDCNHASVDWQVVANGDVSVELRDADQQVVATGQGTSGTLQVVNPHLWQPGEGYLYELCVTAKSQTECDIYPLRVGIRSVAVKGEQFLINHKPFYFTGFGRHEDADLRGKGFDNVLMVHDHALMDWIGANSYRTSHYPYAEEMLDWADEHGIVVIDETAAVGFNLSLGIGFEAGNKPKELYSEEAVNGETQQAHLQAIKELIARDKNHPSVVMWSIANEPDTRPQGAREYFAPLAEATRKLDPTRPITCVNVMFCDAHTDTISDLFDVLCLNRYYGWYVQSGDLETAEKVLEKELLAWQEKLHQPIIITEYGVDTLAGLHSMYTDMWSEEYQCAWLDMYHRVFDRVSAVVGEQVWNFADFATSQGILRVGGNKKGIFTRDRKPKSAAFLLQKRWTGMNFGEKPQQGGKQ |  |  |  |  |  |  |  | 8.91 ± 1.3 h |  |  | 2.85 ± 0.27 h | 5.46 ± 0.52 h
7 | MLRVYHSNRLDVLEALMEFIVERERLDDPFEPEMILVQSTGMAQWLQMTLSQKFGIAANIDFPLPASFIWDMFVRVLPEIPKESAFNKQSMSWKLMTLLPQLLEREDFTLLRHYLTDDSDKRKLFQLSSKAADLFDQYLVYRPDWLAQWETGHLVEGLGEAQAWQAPLWKALVEYTHQLGQPRWHRANLYQRFIETLESATTCPPGLPSRVFICGISALPPVYLQALQALGKHIEIHLLFTNPCRYYWGDIKDPAYLAKLLTRQRRHSFEDRELPLFRDSENAGQLFNSDGEQDVGNPLLASWGKLGRDYIYLLSDLESSQELDAFVDVTPDNLLHNIQSDILELENRAVAGVNIEEFSRSDNKRPLDPLDSSITFHVCHSPQREVEVLHDRLLAMLEEDPTLTPRDIIVMVADIDSYSPFIQAVFGSAPADRYLPYAISDRRARQSHPVLEAFISLLSLPDSRFVSEDVLALLDVPVLAARFDITEEGLRYLRQWVNESGIRWGIDDDNVRELELPATGQHTWRFGLTRMLLGYAMESAQGEWQSVLPYDESSGLIAELVGHLASLLMQLNIWRRGLAQERPLEEWLPVCRDMLNAFFLPDAETEAAMTLIEQQWQAIIAEGLGAQYGDAVPLSLLRDELAQRLDQERISQRFLAGPVNICTLMPMRSIPFKVVCLLGMNDGVYPRQLAPLGFDLMSQKPKRGDRSRRDDDRYLFLEALISAQQKLYISYIGRSIQDNSERFPSVLVQELIDYIGQSHYLPGDEALNCDESEARVKAHLTCLHTRMPFDPQNYQPGERQSYAREWLPAASQAGKAHSEFVQPLPFTLPETVPLETLQRFWAHPVRAFFQMRLQVNFRTEDSEIPDTEPFILEGLSRYQINQQLLNALVEQDDAERLFRRFRAAGDLPYGAFGEIFWETQCQEMQQLADRVIACRQPGQSMEIDLACNGVQITGWLPQVQPDGLLRWRPSLLSVAQGMQLWLEHLVYCASGGNGESRLFLRKDGEWRFPPLAAEQALHYLSQLIEGYREGMSAPLLVLPESGGAWLKTCYDAQNDAMLDDDSTLQKARTKFLQAYEGNMMVRGEGDDIWYQRLWRQLTPETMEAIVEQSQRFLLPLFRFNQS | 4.28 ± 0.21 h | 4.13 ± 0.12 h | 4.32 ± 0.95 h | 6.21 ± 0.64 h | 6.1 ± 0.47 h | 5.23 ± 0.17 h | 3.58 ± 0.068 h | 13 ± 2.4 h | 11.3 ± 0.4 h | 3.63 ± 0.41 h | 3.44 ± 0.61 h | 5.57 ± 0.32 h
